Experimental data from patent publication US20150093764A1 (BECTON DICKINSON, published 2015).

Key:
[1] = biological target: T1, human CD88 (complement component 5a receptor 1) (human, UniProt P21730 1-350); test: flow cytometry on granulocytes, PE goat anti-rabbit secondary
T1 construct: Native antigen on granulocytes of lysed human whole blood / PBMC preparations, read by flow cytometry; also called C5AR1; native CD88 antigen expressed on granulocytes
T1 chain: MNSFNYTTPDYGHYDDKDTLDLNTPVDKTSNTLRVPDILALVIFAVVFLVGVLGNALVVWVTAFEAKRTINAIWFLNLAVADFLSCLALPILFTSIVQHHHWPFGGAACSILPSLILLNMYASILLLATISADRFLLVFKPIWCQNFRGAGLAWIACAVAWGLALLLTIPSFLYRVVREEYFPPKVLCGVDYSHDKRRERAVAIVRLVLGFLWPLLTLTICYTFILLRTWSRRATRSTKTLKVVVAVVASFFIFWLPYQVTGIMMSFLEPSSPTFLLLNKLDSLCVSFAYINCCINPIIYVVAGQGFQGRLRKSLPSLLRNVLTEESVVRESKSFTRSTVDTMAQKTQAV
Method: (§1) For cell surface staining with the parental rabbit anti-human CD88 mAb, PBMCs in PBS containing 2% BSA were mixed with parental rabbit anti-human CD88 mAbs at concentrations of 1 μg, 0.5 μg, 0.25 μg, 0.125 μg and 0.0625 μg as shown in FIG. 3 (A-E) and incubated for 1 hr at 4° C. The cells were washed with PBS containing 2% BSA and incubated at 4° C. for 30 minutes with BD Pharmingen PE Goat Anti-rabbit IgG (Cat No 558146). The cells were washed with PBS containing 2% BSA, and analyzed with a BD FACS Canto II Flow cytometer. Non-specific binding of the secondary anti-rabbit PE-conjugated antibody on the cells alone (primary antibody absent; FIG. 3F) and background autofluorescence by unstained cells (secondary antibody absent; FIG. 3G) served as negative controls for the assay. The % positive signal was detected.

[2] = biological target: T1, human CD88 (complement component 5a …); test: flow cytometry on granulocytes, PE goat anti-rabbit IgG secondary
Method: as §1
The binding of the variant rabbit anti-human CD88 mAbs was assayed as for the parental mAb, and the results for four variants are shown in FIGS. 4-7. […] Panels F and G show fluorescence of the negative controls as described for the parental mAb. […] Panels F and G show fluorescence of the negative controls as described for the parental mAb. […] Panels F and G show fluorescence of the negative controls as described for the parental mAb. FIG. 7 (A-E) show the binding at concentrations of 1 ug, 0.5 ug, 0.25 ug, 0.125 ug and 0.0625 ug of a fourth variant mAb having a substitution R116A in the heavy chain and a substitution Y51F in the light chain CDRs. Panels F and G show fluorescence of the negative controls as described for the parental mAb.

B1: parental rabbit anti-human CD88 mAb (hybridoma cell line CD88 clone C85-4124) (antibody, V domains shown)
VH: QSVKESEGGLFKPADTLTLTCTVSGFSVNNKGVMWVRQAPGNGLEWIGSIGISGRVTYATWAKSRSTITRDTNLNTVTLKVTSLTVADTATYFCRIGSNIWGPGTLVTVSS
VL: ELVLTQTPSSVSAAVGGTVTINCQSSQSVYNNNLLAWYQQKPGQPPKLLIYQASTLDSGVPSRFKGSGTGTHFTLTISDLECDDAATYYCQGGYNGNGIAAFGGGTEVVVDG
notes: Rabbit monoclonal antibody
Question: Does B1 bind [1]?
Answer: Result: binds

B2: Variant 2 rabbit anti-human CD88 mAb, Y51A in light chain CDR-L1 (antibody, V domains shown)
VH: QSVKESEGGLFKPADTLTLTCTVSGFSVNNKGVMWVRQAPGNGLEWIGSIGISGRVTYATWAKSRSTITRDTNLNTVTLKVTSLTVADTATYFCRIGSNIWGPGTLVTVSS
VL: ELVLTQTPSSVSAAVGGTVTINCQSSQSVANNNLLAWYQQKPGQPPKLLIYQASTLDSGVPSRFKGSGTGTHFTLTISDLECDDAATYYCQGGYNGNGIAAFGGGTEVVVDG
notes: Recombinant, made in 293F cells; also called second variant
Question: Does B2 bind [2]?
Answer: Result: no binding

B3: Variant 3 rabbit anti-human CD88 mAb, R116A in heavy chain and Y51A in light chain (antibody, V domains shown)
VH: QSVKESEGGLFKPADTLTLTCTVSGFSVNNKGVMWVRQAPGNGLEWIGSIGISGRVTYATWAKSRSTITRDTNLNTVTLKVTSLTVADTATYFCAIGSNIWGPGTLVTVSS
VL: ELVLTQTPSSVSAAVGGTVTINCQSSQSVANNNLLAWYQQKPGQPPKLLIYQASTLDSGVPSRFKGSGTGTHFTLTISDLECDDAATYYCQGGYNGNGIAAFGGGTEVVVDG
notes: Recombinant double mutant, made in 293F cells; also called third variant
Question: Does B3 bind [2]?
Answer: Result: no binding

B4: Variant 1 rabbit anti-human CD88 mAb, R116A in heavy chain CDR-H3 (antibody, V domains shown)
VH: QSVKESEGGLFKPADTLTLTCTVSGFSVNNKGVMWVRQAPGNGLEWIGSIGISGRVTYATWAKSRSTITRDTNLNTVTLKVTSLTVADTATYFCAIGSNIWGPGTLVTVSS
VL: ELVLTQTPSSVSAAVGGTVTINCQSSQSVYNNNLLAWYQQKPGQPPKLLIYQASTLDSGVPSRFKGSGTGTHFTLTISDLECDDAATYYCQGGYNGNGIAAFGGGTEVVVDG
notes: No signal peptide limits are stated; also called first variant
Question: Does B4 bind [2]?
Answer: Result: no binding

B5: Variant 4 rabbit anti-human CD88 mAb, R116A in heavy chain and Y51F in light chain (antibody, V domains shown)
VH: QSVKESEGGLFKPADTLTLTCTVSGFSVNNKGVMWVRQAPGNGLEWIGSIGISGRVTYATWAKSRSTITRDTNLNTVTLKVTSLTVADTATYFCAIGSNIWGPGTLVTVSS
VL: ELVLTQTPSSVSAAVGGTVTINCQSSQSVFNNNLLAWYQQKPGQPPKLLIYQASTLDSGVPSRFKGSGTGTHFTLTISDLECDDAATYYCQGGYNGNGIAAFGGGTEVVVDG
notes: Recombinant double mutant, made in 293F cells; also called fourth variant
Question: Does B5 bind [2]?
Answer: Result: no binding
